Assay results: patent US20220169679A1 (THAI UNION GROUP PUBLIC, published 2022)
Values joined by “and” are separate entries in the source; they are usually repeats but may differ in a detail not shown here. Identical values can stand only once.

target: angiotensin I-converting enzyme (ACE); test: cell-based or functional assay

| Binder | ACE inhibitory activity (%) at 1 µg/ml | ACE inhibitory activity (%) at 1 mg/ml |
| --- | --- | --- |
| SRINCR [SRINCR (SEQ ID NO: 8)] | 27.5% | 98.8% |
| VIY | – | 18.5% |
| VIYSR [VIYSR (SEQ ID NO: 6)] | 12.1% | 97.8% |
| INCR [INCR (SEQ ID NO: 7)] | 29.1% | 101% |

target: angiotensin I-converting enzyme (ACE); test: cell-based or functional assay; remark: another data set of the same source

| Binder | ACE inhibition (%) at 1 mg/ml |
| --- | --- |
| LEQVSAGTT [LEQVSAGTT (SEQ ID NO: 25)] | 1.9% |
| LIHAIL [LIHAIL (SEQ ID NO: 14)] | 33.4% |
| HFAASGK [HFAASGK (SEQ ID NO: 24)] | 27% |
| GPLYHS [GPLYHS (SEQ ID NO: 13)] | 85.8% |
| NGPSGQTG [NGPSGQTG (SEQ ID NO: 21)] | 25.9% |
| VEWKERATE [VEWKERATE (SEQ ID NO: 27)] | 15.5% |
| VIYSRINCR [VIYSRINCR (SEQ ID NO: 5)] | 97% |
| VQSVPAT [VQSVPAT (SEQ ID NO: 26)] | 36.9% |
| IFERL [IFERL (SEQ ID NO: 19)] | 45.3% |
| LLHAKPLN [LLHAKPLN (SEQ ID NO: 28)] | 79% |
| MTGLPGPTGP [MTGLPGPTGP (SEQ ID NO: 33)] | 49% |
| QGPPGNPG [QGPPGNPG (SEQ ID NO: 32)] | 2.91% |
| LPPGKIV [LPPGKIV (SEQ ID NO: 18)] | 71.7% |
| WTIHTP [WTIHTP (SEQ ID NO: 17)] | 68% |
| APPHIF [APPHIF (SEQ ID NO: 23)] | 82% |
| KKLEKKTT [KKLEKKTT (SEQ ID NO: 30)] | 21.5% |
| VLMSQVFKQT [VLMSQVFKQT (SEQ ID NO: 16)] | 55.1% |
| NLLPHR [NLLPHR (SEQ ID NO: 3)] | 94.9% |
| IKVGGERF [IKVGGERF (SEQ ID NO: 29)] | 24.3% |
| SFLMRK [SFLMRK (SEQ ID NO: 15)] | 77.7% |
| VSVVQYSR [VSVVQYSR (SEQ ID NO: 4)] | 94.2% |
| FDQFLPIH [FDQFLPIH (SEQ ID NO: 20)] | 88.4% |
| LLDHRANL [LLDHRANL (SEQ ID NO: 22)] | 29.2% |
| GVPGIHGS [… (SEQ ID NO: 31)] | 70.6% |

target: angiotensin I-converting enzyme (ACE); test: cell-based or functional assay; remark: another data set of the same source

| Binder | IC50 of ACE inhibitory activity |
| --- | --- |
| VIYSRINCR [VIYSRINCR (SEQ ID NO: 5)] | 0.27 µg/ml and 0.24 µM |
| NLLPHR [NLLPHR (SEQ ID NO: 3)] | 0.93 µg/ml and 1.24 µM |
| VSVVQYSR [VSVVQYSR (SEQ ID NO: 4)] | 0.89 µg/ml and 0.95 µM |
